Assay results reported in patent publication US20200308299A1, “ANTI-GPC-1 ANTIBODY” (National University Corporation Kochi University, priority 2017, published 2020).

T1: Recombinant human Glypican-1 protein (Homo sapiens, UniProt P35052)
T1 construct: purchased R&D systems 4519-GP-050
T1 sequence (P35052 24-530 limits assumed): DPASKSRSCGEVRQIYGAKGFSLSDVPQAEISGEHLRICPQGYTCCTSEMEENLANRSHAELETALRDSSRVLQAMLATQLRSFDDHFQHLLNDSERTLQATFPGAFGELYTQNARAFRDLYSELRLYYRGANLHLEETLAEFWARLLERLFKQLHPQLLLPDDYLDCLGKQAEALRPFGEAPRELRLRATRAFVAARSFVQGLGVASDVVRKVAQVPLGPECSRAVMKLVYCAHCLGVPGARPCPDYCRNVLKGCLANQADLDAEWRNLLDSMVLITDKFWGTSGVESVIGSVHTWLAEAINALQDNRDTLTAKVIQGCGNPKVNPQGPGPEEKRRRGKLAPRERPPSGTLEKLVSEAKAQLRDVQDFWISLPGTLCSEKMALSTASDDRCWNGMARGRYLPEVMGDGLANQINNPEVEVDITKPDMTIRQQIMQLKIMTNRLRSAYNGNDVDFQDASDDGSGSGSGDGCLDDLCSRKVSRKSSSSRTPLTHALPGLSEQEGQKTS

B1: clone 01a033 (antibody)
heavy: QVQLKQSGPELVKPGASVKISCKASGYSFTGYYMHWVKQSPEKSLEWIGEINPSTGDTTYNQKFKAKATLTVDKSSSTAYMQLKSLTSEDSAVYYCAREKRDDGVFAYWGQGTLVTVSSAKTTAPSVYPLAPVCGDTTGSSVTLGCLVKGYFPEPVTLTWNSGSLSSGVHTFPAVLQSDLYTLSSSVTVTSSTWPSQSITCNVAHPASSTKVDKKIEPRGPTIKPCPPCKCPAPNLLGGPSVFIFPPKIKDVLMISLSPIVTCVVVDVSEDDPDVQISWFVNNVEVHTAQTQTHREDYNSTLRVVSALPIQHQDWMSGKEFKCKVNNKDLPAPIERTISKPKGSVRAPQVYVLPPPEEEMTKKQVTLTCMVTDFMPEDIYVEWTNNGKTELNYKNTEPVLDSDGSYFMYSKLRVEKKNWVERNSYSCSVVHEGLHNHHTTKSFSRTPGK
light: DIVMSQSPKSMSMSVGERVALSCKASENVGTYVSWYQQKPEQSPKLLIYGASNRYTGVPDRFTGSGSATDFTLTISSVQAEDLADYYCGQSYSYPLTFGAGTKLELKRADAAPTVSIFPPSSEQLTSGGASVVCFLNNFYPKDINVKWKIDGSERQNGVLNSWTDQDSKDSTYSMSSTLTLTKDEYERHNSYTCEATHKTSTSPIVKSFNRNEC
B2: GPC1 ADC (conjugate)
heavy: B1 heavy
light: B1 light

How the values were obtained:
[1] = molecular target: T1, Recombinant human Glypican-1 protein; assay: Antigen affinity analysis by ELISA on immobilized recombinant human GPC1; type: binding; settings: for affinity to antigen (ELISA, OD 450 nm): recombinant human GPC1 coated at 2.5 μg/mL
Procedure: The buffer used in this Example was prepared as follows.
The primary antibodies used in this Example were prepared. GPC1-CL-MMAF and anti-GPC1 monoclonal antibodies (01a033) were diluted stepwise to 100, 20, 4, 0.8, 0.16, 0.032, 0.0064, 0.00128, 0.000256, 0.0000512, and 0.00001024 nM with a dilution buffer. Recombinant human Glypican-1 proteins (CF, model number: 4519-GP-050, volume: 50 μg) were used as the antigen.
Recombinant human GPC1 was diluted to 2.5 μg/mL with PBS (−) and added to 64 wells of Immuno 96 well MicroWell Solid Plate (Maxisorp, Nunc) at 50 μL/well, and the plate was sealed. The plate was shaken, and liquid was confirmed to spread throughout the plate. Next, the following procedure was followed.
*Dilute (1) GPC1-CL-MMAF and (2) anti-GPC1 monoclonal antibody (01a033) with a dilution buffer in a 10-fold dilution series from 100 nM, and add the mixture to the 96-well microplate at 100 μL/well.
*Dilute Anti-Mouse IgG (H+L) Antibody, Human Serum Adsorbed and Peroxidase labeled (KPL, cat. No.: 474-1806) with a dilution buffer (10% Block Ace) to 0.2 μg/ml (prepare a 5000-fold dilution upon use), and add the mixture to the 96-well microplate at 100 μL/well.
*Return TMB (SurModics, TMBW-1000-01) to normal temperature before use, and add the TMB to the 96-well microplate at 100 μL/well.
*Measure absorbance at 450 nm.
*Analyze data with GraphPad Prism 6.04.

LLC-mGPC1-16 = assay: In vivo efficacy test on GPC1 ADC, mouse syngenic model using mGPC1 expressing LLC cell strain
Excerpt: A mouse model (syngenic mouse) with GPC1 expressed in normal cells that is consistent with GPC1 expressed from cancer cells (i.e., both mouse GPC1) can be prepared by grafting the cell strain expressing mouse GPC1 established in Example 16 into mice. The efficacy and safety can be more accurately evaluated in an experiment using such a mouse model.
FIG. 55 schematically depicts the test in this Example. Specifically, 5.0×10^6 cells of LLC-mGPC1-16 were subcutaneously grafted into female C57BL/6 mice. […] The tumor volume and body weight were measured on day 0, day 4, day 8, day 12, day 16, day 20, and day 24.

ME180 cell strain = assay: In vivo efficacy test on GPC1 ADC using cervical cancer cell strain ME180 in SCID mice; design: species or system mouse
Procedure: Specifically, 1.0×10^6 cells of ME180 cell strain were subcutaneously grafted into female SCID mice. […] The tumor volume and body weight were measured on day 0, day 4, day 8, day 12, day 16, day 20, day 24, day 28, and day 32.
After subcutaneous tumorigenesis of ME180, (1) PBS, (2) control ADC at 10 mg/kg, and (3) GPC1-ADC at 10 mg/kg were administered once into the tail vein. The tumor was extracted after 24 hours. After deparaffinization of a section of a paraffin embedded tissue, the slice was dehydrated with alcohol. Immunohistochemical staining on Phospho-Histon H3 (Ser10) was performed by using an anti-Phospho-Histon H3 (Ser10) antibody (Cell Signaling Technology: #9701) and ChemMate Envision kit HRP 500T (Dako: K5007).

[2] = tested on: GPC1 positive esophageal cancer cell strains (TE4, TE5, TE6, TE8, TE9, TE10, TE11, TE14, TE15); assay: In vitro ADC assay, GPC1 positive esophageal cancer cell strains; type: cell-based; settings: 144 hours of culture
Procedure: (§1) Preparation of a conjugate of mouse anti-Glypican-1 mAb (01a033), mouse IgG2a (biolegend #400224) as a control, and mc-vc-PAB-MMAF was commissioned to MORADEC. An anticancer agent was conjugated to a cysteine residue via a cleavable linker. The DAR (drug-antibody ratio) was as follows. GPC1-CL-MMAF DAR=3.8, mouse IgG2a-CL-MMAF DAR=4.1.
(§2) (1) The cells were seeded on Thermo Fisher Scientific's 96-well white plate (model no.: 136101) (90 μl cell suspension). RPMI1640+10% FBS+100 U/ml penicillin+100 μg/ml streptomycin was used as the medium. The cells were seeded in 60 wells, and 100 μL of medium was added to 36 wells, and cultured in a 5% CO2 incubator at 37° C. (2) The next day, 10 μL of ADC was added to the cells (total amount: 100 μL). (3) After 144 hours of culture, a CellTiter-Glo™ Luminescence Cell Viability Assay reagent (Promega) was added and mixed at 100 μL/well. (4) Measurements were taken with a plate reader. (5) Analysis was conducted with GraphPad Prism 6.
(§3) The IC50 values were calculated from the following equation (Hossain M M, Hosono-Fukao T, Tang R, Sugaya N, van Kuppevelt T H, Jenniskens G J, Kimata K, Rosen S D, Uchimura K (2010) Direct detection of HSulf-1 and HSulf-2 activities on extracellular heparan sulphate and their inhibition by PI-88. Glycobiology 20(2): 175-186.)
(§4) IC50=10^(Log [A][B]×(50−C)/(D−C)+Log [B]) […]

T3M4 cells = assay: In vitro ADC assay, T3M4 cells; type: cell-based, human; settings: T3M4, 144 hours
Procedure: as §1, §2, §3, §4

Molecule	affinity to antigen (ELISA, OD 450 nm) [1]	antitumor effect against tumor expressing mouse GPC-1 (LLC-mGPC1-16; 1, 3, 10 mg/kg)	antitumor effect (tumor volume, tumor weight day 32) (ME180 cell strain; 1 mg/kg iv day 0, 4, 8, 12)	antitumor effect (tumor volume, tumor weight day 32) (ME180 cell strain; 3 mg/kg iv day 0, 4, 8, 12)	antitumor effect (tumor volume, tumor weight day 32) (ME180 cell strain; 10 mg/kg iv day 0, 4, 8, 12)	tumor volume (ME180 cell strain; 10 mg/kg iv day 0, 4, 8, 12)	change in the body weight (ME180 cell strain; any dosage tested (1, 3, 10 mg/kg))	G2/M phase arrest in tumor tissue (Phospho-Histon H3 (Ser10) staining) (ME180 cell strain; single tail vein dose 10 mg/kg, tumor extracted after 24 hours)	affinity level of ADC compared with unlabeled antibody ([1]; 01a033 versus 01a033 ADC)	effect of suppressing cell growth [2]	effect of suppressing cell growth (T3M4 cells)	tumor growth (LLC-mGPC1-16; 1 mg/kg iv day 0, 4, 8, 12, compared to the control group)	tumor growth (LLC-mGPC1-16; 3 mg/kg iv day 0, 4, 8, 12)	tumor growth (LLC-mGPC1-16; 10 mg/kg iv day 0, 4, 8, 12)	body weight (LLC-mGPC1-16; 10 mg/kg, tended to recover after 15 days from the start of administration)	toxicity (LLC-mGPC1-16; syngenic mice, 1, 3, 10 mg/kg)
B1	high affinity	high antitumor effect														
B2	high affinity		slight antitumor effect	slight antitumor effect	significant antitumor effect	tumor volume was significantly reduced	significant change in the body weight was not observed	resulted in G2/M phase arrest	about the same	exhibits an effect of suppressing cell growth	exhibits an effect of suppressing cell growth	significantly delayed	Tumor hardly grew	Tumor hardly grew	transient decrease in body weight	Significant toxicity was not observed
